Data on eight molecules can be found in patent publication US11827701B2, “IL-6 binding molecules” (argenx BV, priority 2012, dated 2023).

Where a chain is given by its changes, count along the chain named.

Assay [1] addresses biotinylated (prokaryotic) IL-6 (Homo sapiens, UniProt P05231). Put plainly: Surface plasmon resonance (Biacore), biotinylated IL-6 captured on streptavidin sensor chip. It is filed as binding. As to conditions: purified Fab. How it is done: The binding kinetics of IL-6-specific Fabs that were able to cross-compete with the B-E8 antibody was assessed using surface plasmon resonance (Biacore). Specifically, biotinylated (prokaryotic) IL-6 was captured on a streptavidin biacore sensor chip (CM5-SA) and different concentrations of purified Fabs were injected during 3 minutes following by a 5 minute wash with buffer. From the washing phase the off-rate (kd) was determined, while from the injection phase the on-rate (ka) was calculated using the concentration and off-rate as parameters. […] The binding kinetics of antagonistic purified Fabs (Table 3) and periplasmic fractions of Fab-expressing bacteria (Table 4) were also evaluated by surface plasmon resonance (Biacore) using both bacterially and eukaryotically produced human IL-6 directly coated on a CM5 chip. The Fabs tested had off-rates between 6×10^−4 and 2×10^−5 s^−1.
On the technique in general: SPR reads the build-up and loss of mass on a sensor chip optically.

A further assay has as its system IL-6. Put plainly: Serum amyloid A (SAA) mouse model, induction by injected IL-6. On the set-up: SAA, Mean / SAA, Mouse1 / SAA, Mouse2 / SAA, Mouse3 / SAA, Mouse4 / SAA, Mouse5 / SAA, Mouse6: unit not given here. It is filed as in vivo. As to conditions: 0.1 μg IL-6; for SAA, Mean: mean of 6 mice. The method, then:
The in vivo efficacy of clones 68F2 and 61H7 was further investigated by measuring the ability of these antibodies to block serum amyloid A (SAA) induction in response to injected IL-6. General methods for performing this assay are set forth in WO2006/119115A2, which is hereby incorporated by reference in its entirety. […] Four hours after administration of the antibody, the mice were injected with 0.1 ug of IL-6. After a further 16 hours, blood was taken from the mice and the concentration of Serum Amyloid A was determined by ELISA. The dose responses are also graphically depicted in FIG. 13.

Chain of biotinylated (prokaryotic) IL-6 (P05231 30-212): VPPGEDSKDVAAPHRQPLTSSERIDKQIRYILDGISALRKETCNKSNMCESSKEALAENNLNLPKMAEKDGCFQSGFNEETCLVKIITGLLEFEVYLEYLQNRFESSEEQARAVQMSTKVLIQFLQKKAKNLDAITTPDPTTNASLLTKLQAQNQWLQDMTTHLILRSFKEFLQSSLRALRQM

B1: 18C11: antagonistic IL-6-specific Fab clone from immunized llama (antibody, listed as Lama glama, V domains shown)
VH: EVQLVESGGGLVQPGGSLRLSCAASGFTFSSYAMSWVRQAPGKGLEWVSAINSGGGSTSYADSVKGRFTISRDNAKNTLYLQMNSLKPEDTAVYYCAKEGDTGWKDPMYDYWGQGTQVTVSS
VL: QSVVTQPSALSVTLGQTAKITCQGGGLRSSYAHWYQQKPGQAPVLVIYDDDSRPSGIPERFSGSSSGGRATLTISGAQAEDEGDYYCQSADSSGNAAVFGGGTHLTVLG
Turning to B1, in assay [1], the KA stood at 7.05e+07 M⁻¹, the Rmax turned out to be 22.1 RU, the ka turned out to be 55200 M⁻¹ s⁻¹ and the kd came out at 0.000784 s⁻¹.

B2: 18F8: antagonistic IL-6-specific Fab clone from immunized llama (antibody, listed as Lama glama, V domains shown)
VH: B1 VH with S31R, Y32N, D101Y
VL: QSALTQPSALSVTLGQTAKITCQGGSLGSRYAHWYQQKPGQAPVLVIYDDDSRPSGIPERFSGSSSGGRATLTISGAQAEDEGDYYCQSADTSEHIVFGGGTHLTVLG
In assay [1], B2 showed a KA of 6.18e+07 M⁻¹, an Rmax of 51.5 RU, a ka of 48400 M⁻¹ s⁻¹ and a kd of 0.000784 s⁻¹.

B3: 18C9: antagonistic IL-6-specific Fab clone from immunized llama (antibody, listed as Lama glama, V domains shown)
VH: B1 VH with S31R, Y32N, D101Y
VL: LNFMLTQPSALSVTLGQTAKITCQGGSLGSRYAHWYQQKPGQAPVLVIYDDDSRPSGIPERFSGSSSGGRATLTISGAQAEDDGDYYCQSADSSGNASVFGGGTHLTVLG
Turning to B3, in assay [1], the KA is 4.67e+07 M⁻¹, the Rmax stood at 49.9 RU, the ka came to 55600 M⁻¹ s⁻¹ and the kd amounted to 0.00119 s⁻¹.

B4: 24C9: antagonistic IL-6-specific Fab clone from immunized llama (antibody, listed as Lama glama, V domains shown)
VH: QVQLVESGGGLVQPGGSLRLSCAASGFTFSSYRMYWVRQPPGKGLEWVSAISAGGGSTYYGDSVKGRFTISRDNAKNTVYLQMNSLKPEDTALYYCKKSTWADGESDYWGQGTQVTVSS
VL: QTVVTQEPSLSVSPGGTVTLTCGLSSGSVTASNYPGWFQQTPGQAPRALIYSTNDRHSGVPSRFSGSISGNKAALTITGAQPEDEADYYCALDIGDITEFGGGTHLTVLG
Consider B4, for which, in assay [1], the KA came to 1.51e+09 M⁻¹, the Rmax worked out at 38.1 RU, the ka turned out to be 133000 M⁻¹ s⁻¹ and the kd amounted to 8.77e-05 s⁻¹. For the same molecule, the “off-rates (range)” value in assay [1] is listed as ~10^−5 s^−1. For the same molecule, the Kd in assay [1] (read-out: affinities) was 660 pM.

B5: 24E9: antagonistic IL-6-specific Fab clone from immunized llama (antibody, listed as Lama glama, V domains shown)
VH: EVQLVESGGGLVQPGGSLRLSCAASGFTFSTYAMSWVRQAPGKGPEWVSRISSGGGSTNYADSVKGRFTISRDNAKKTLYLQMKSLKPEDTAVYYCANRAGWGMGDYWGQGTQVTVSS
VL: B4 VL
In assay [1], B5 yielded a KA of 8.38e+08 M⁻¹, an Rmax of 41 RU, a ka of 117000 M⁻¹ s⁻¹ and a kd of 0.000139 s⁻¹.

B6: 20A4: antagonistic IL-6-specific Fab clone, parental of 68F2 (antibody, listed as Lama glama, V domains shown)
VH: EVQLQESGPGLVKPSQTLSLTCTVSGGSITTRYYAWSWIRQPPGKGLEWMGVIDYDGDTYYSPSLKSRTSISWDTSKNQFSLQLSSVTPEDTAVYYCARDPDVVTGFHYDYWGQGTQVTVSS
VL: ALNFMLTQPPSVSGTLGKTVTISCAGTSSDIGGYNYVSWYQQLPGTAPKLLIHRVSTRASGIPDRFSGSKSGNTASLTISGLRSEDEANYYCASYRNFNNAVFGGGTQLTVLG
Consider B6, for which, in assay [1], the KA was found to be 1.72e+08 M⁻¹, the Rmax is 48.2 RU, the ka was 288000 M⁻¹ s⁻¹ and the kd stood at 0.00168 s⁻¹.

B7: CNTO 136 (antibody, chains of the INN, looked up, V domains shown)
VH: EVQLVESGGGLVQPGGSLRLSCAASGFTFSPFAMSWVRQAPGKGLEWVAKISPGGSWTYYSDTVTGRFTISRDNAKNSLYLQMNSLRAEDTAVYYCARQLWGYYALDIWGQGTTVTVSS
VL: EIVLTQSPATLSLSPGERATLSCSASISVSYMYWYQQKPGQAPRLLIYDMSNLASGIPARFSGSGSGTDFTLTISSLEPEDFAVYYCMQWSGYPYTFGGGTKVEIK
With B7, in the assay on IL-6 (Ab dose/mouse 0.31 μg), the “SAA, Mouse1” value is 158; the “SAA, Mouse2” value is reported as 175; the “SAA, Mouse3” value was found to be 161; the “SAA, Mouse4” value is listed as 134. In the assay on IL-6 (Ab dose/mouse 0.31 μg), the “SAA, Mouse5” value is reported as 183; the “SAA, Mouse6” value was 171; the “SAA, Mean” value is 163.7. Besides, in the assay on IL-6 (Ab dose/mouse 1.25 μg), the “SAA, Mouse1” value is recorded as 107; the “SAA, Mouse2” value amounted to 54; the “SAA, Mouse3” value was found to be 67; the “SAA, Mouse4” value is listed as 56. Further, in the assay with IL-6 (Ab dose/mouse 1.25 μg), the “SAA, Mouse5” value is listed as 62; the “SAA, Mouse6” value worked out at 71; the “SAA, Mean” value came to 69.5. In the assay on IL-6 (Ab dose/mouse 5 μg), the “SAA, Mouse1” value is on record as 80; the “SAA, Mouse2” value amounted to 80; the “SAA, Mouse3” value is on record as 45; the “SAA, Mouse4” value came out at 55. For the same molecule, in the assay with IL-6 (Ab dose/mouse 5 μg), the “SAA, Mouse5” value is recorded as 70; the “SAA, Mouse6” value came to 84; the “SAA, Mean” value stood at 69.0.

B8: 28C6: antagonistic IL-6-specific Fab clone from immunized llama (antibody, listed as Lama glama, V domains shown)
VH: QVQLVESGGGLVQPGGSLRLSCAASGFTFSNYYMTWVRQAPGKGLEWVSSIYSFSGDTAYADSVKGRFTISRDNAKNTLYLQMNKLKSEDTAVYYCTRDLGGVVVTANGYDYWGQGTQVTVSS
VL: DIVMTQTPSSLSASLGDRVTITCQASQSISTELSWYQQKPGQTPKLLIYGASRLQTGVPARFSGSGSGTSFTLTISGLEAEDLATYYCLQDYSWPYSFGSGTRL
Consider B8, for which, in assay [1], the KA was found to be 4.04e+07 M⁻¹, the Rmax came to 22.6 RU, the ka worked out at 101000 M⁻¹ s⁻¹ and the kd was determined as 0.0025 s⁻¹.
